According to patent US20260071003A1 (UNIVERSITY OF GEORGIA RESEARCH FOUNDATION, published 2026):
One block for each binder: values may come before it.

Experiments:
[1] = biological target: T1, ApoL1 Protein, human recombinant (Sino Biological 13910-H08B) (human, UniProt O14791 28-398); experiment: dot blot (native)
T1 construct: also called rApoL1; recombinant ApoL1
T1 sequence: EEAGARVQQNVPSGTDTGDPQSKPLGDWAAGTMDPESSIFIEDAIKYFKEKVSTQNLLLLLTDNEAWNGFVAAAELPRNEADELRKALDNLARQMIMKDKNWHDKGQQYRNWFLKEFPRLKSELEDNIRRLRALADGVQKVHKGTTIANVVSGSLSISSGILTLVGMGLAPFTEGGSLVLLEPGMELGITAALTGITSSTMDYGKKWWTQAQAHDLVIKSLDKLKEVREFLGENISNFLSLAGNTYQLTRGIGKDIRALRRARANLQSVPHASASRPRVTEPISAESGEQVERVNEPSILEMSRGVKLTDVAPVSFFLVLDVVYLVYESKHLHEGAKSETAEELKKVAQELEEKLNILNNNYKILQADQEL

[2] = biological target: T2, native human Apolipoprotein L1 (ApoL1), in purified TLF / HDL float / normal human serum / endogenous in … (human, UniProt O14791 28-398); experiment: Western blot of column purified TLF (2 ug), non-reducing and reducing
T2 construct: Secreted native protein carried on HDL/TLF particles; also called Native ApoL1; endogenous ApoL1
T2 sequence: T1 sequence

[3] = biological target: T1, ApoL1 Protein, human recombinant (Sino …); experiment: Western blot of recombinant ApoL1 (SDS-PAGE, non-reducing and reducing)
[4] = biological target: T1, ApoL1 Protein, human recombinant (Sino …); experiment: bridging ELISA control without bsAb (bsAb-): immobilized ApoL1, then rabbit Fc tagged BCMA, detected with anti-rabbit HRP
Method: Enzyme-Linked Immunosorbent Assay (ELISA) plates were prepared by incubating them overnight at 4° C. with their respective immobilization buffer (bicarbonate/carbonate coating buffer 100 mM) or blocking buffer (PBS, 0.1% Tween-20, 1% BSA).
For the bridging ELISA experiments, ApoL1 (Sino Cat.13910-H08B) or BCMA (Sino Cat. 10620-H15H) were resuspended at a 1:10,000 dilution in ELISA binding buffer (1×PBST+1% BSA) and then incubated overnight at 4° C. ApoL1 was immobilized across all conditions except where BCMA was immobilized as a primary protein (ApoL1-*). Following immobilization, 100 μl of bispecific antibody (bsAb, […] in ELISA blocking buffer) was added and allowed to incubate for 1 hour at 37° C. Subsequently, each well underwent four rounds of 150 μl washes with 1×PBST. Next, 1 μg/mL rabbit Fc tagged BCMA in ELISA blocking buffer was allowed to incubate for 1 hr at 37° C. followed by four more rounds of 150 μl 1×PBST washes. A secondary binding component, anti-rabbit HRP, was added at 1:10,000 and the plate was incubated for an additional hour at 37° C. followed by another four rounds of 150 μl washes with 1×PBST. […] The reaction was halted by adding 50 μl of Stop Solution, and the absorbance was promptly measured at 450 nm on a SpectraMax iD3 plate reader ([…]).

[5] = biological target: T1, ApoL1 Protein, human recombinant (Sino …); experiment: imaging flow cytometry: RPMI 8226 cells pre-incubated with 30 µg/mL bsAb or isotype control, then Alexa-488 labeled recombinant ApoL1
Method: Cells were prepared as above with the addition of 15 μg/mL unlabeled ApoL1 in the blocking buffer for overnight incubation. After blocking, cells were washed 2 times with CSB and aliquoted to 50 μl aliquots for each reaction. First, bsAb or isotype control was added at 30 μg/mL for 1.5 hours, followed by 2 washes and […] of Alexa labeled ApoL1-488. Cells were incubated for 1 hour and washed 3 times with the final wash resuspended in 50 μl of CSB.
Imaging flow cytometry acquisition was performed on an ImageStream X MK II (Luminex Corporation, Seattle, Washington) with fluidics set at low speed, sensitivity set to high, magnification set to 60×, and illumination set to: 405:120 mW, 488:200 mW, 561:200 mW, 642:150 mW, SSC:4.38 mW. All samples were acquired using the autosampler with INSPIRE software for an acquisition time of 4000 events or 8 minutes per sample, with events counting SSC channel from 5.2×10\hat{ }5 to 8.9×10\hat{ }7. Gates were set and quantified using IDEAS software version 6.2.
Next, Alexa-488 labeled recombinant ApoL1 was used to determine if cell bound bsAb can bind ApoL1. Some background binding of labeled ApoL1 to cells without bsAb, likely due to existing binding affinities for ApoL1 to cell membranes, was foreseen. […]

[6] = biological target: T3, BCMA on RPMI 8226 (ATCC CCL-155) multiple myeloma cells (UniProt Q02223 1-184, limits assumed); experiment: imaging flow cytometry on fixed RPMI 8226 cells; Alexa-488 labeled bsAb at 3 µg/mL against Alexa-488 labeled human IgG1 isotype control
T3 construct: whole, on cells; No BCMA-negative cell control is reported; also called MM cells
T3 sequence (looked up): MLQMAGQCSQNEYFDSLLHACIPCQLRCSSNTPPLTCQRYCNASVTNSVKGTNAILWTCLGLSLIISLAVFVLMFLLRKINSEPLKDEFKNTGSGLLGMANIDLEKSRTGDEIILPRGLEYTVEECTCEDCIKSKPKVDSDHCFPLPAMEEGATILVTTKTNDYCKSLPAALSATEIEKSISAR
Method: Cells were cultured according to standard protocols. All cell pelleting were performed at 300× g for 5 minutes at 4 C. One to two days prior to the experiment, cells were washed and split to achieve a cell density of approximately […] in a total volume of 10-30 mL containing 10 nM LY411575 (LY). On the day of the experiment, Zombie NIR dye (BioLegend Cat. 423106) was diluted 1:100 in phosphate-buffered saline (PBS). Cells were washed and resuspended in PBS with Zombie NIR dye at a concentration of 1×10\hat{ }7 cells/mL and incubated for 10 minutes at room temperature. […]
Imaging flow cytometry acquisition was performed on an ImageStream X MK II (Luminex Corporation, Seattle, Washington) with fluidics set at low speed, sensitivity set to high, magnification set to 60×, and illumination set to: 405:120 mW, 488:200 mW, 561:200 mW, 642:150 mW, SSC:4.38 mW. […] Gates were set and quantified using IDEAS software version 6.2.
Imaging flow cytometry was used as an assay to determine if the ApoL1-BCMA-bsAb (bsAb) of Example 8 binds the two intended targets in vitro. First, the bsAb and a human IgG1 isotype control were Alexa-488 labeled and binding affinities were determined by measuring total cellular florescence after incubation. […]

binding result [1]: binds
binding result [2]: binds
B1: ascites Prot-G purified anti-ApoL1 antibody, clone SFIII 13.11 (mouse IgG1) (antibody, V domains shown)
VH: EVQLVESGGGLVKPGGSLKLSCAASGFTFSTYAMSWVRQSPEKRLEWVAEISNGGLYTYYPDTVTGRFTISRDNVKNILYLEMSSLRSEDTAIYYCIRENRNWYFDLWGAGTTVTVSS
VL: DVLMTQTPLSLPVSLGDQASISCRSSQSIVNSNGNTYLEWYLQKPGQSPKLLIYKVSNRFSGVPDRFSGSGSGTDFTLKISRVEAEDLGVYYCFQGSHVPLTFGAGTKLELKR
notes: Hybridoma-derived mouse IgG1; also called ascites Pro-G purified antibody; purified antibody

B2: recombinant anti-Hpr antibody, clone SFII 134.3 (antibody, V domains shown)
VH: QIQLVQSGPELKKPGETVKISCKASGYIFTNYGMNWVRQAPGKGLKWMGWINSYTGEATYTDDLKGRFAFSLESSASTAYLQINNLKNEDTATYFCAREGYGDYGYSFDYWGQGTTLTVSS
VL: DIQMTQSPASLSASVGETVTITCRATKNIYTYLAWYQQKQGKSPQFLVYNAKTLAEGVPSRFSGSGSGTQFSLKINSLQPEDFGNYYCQHHYGTPRTFGGGTKLEIK
notes: Recombinant form of mouse anti-Hpr clone SFII 134.3; it was detected with goat anti-mouse secondary; also called recombinant antibody
binding result [3]: no binding (tested: 1:10,000 dilution of antibody)

B3: ascites Prot-G purified anti-Hpr antibody, clone SFII 134.3 (mouse IgG2a) (antibody, V domains shown)
VH: B2 VH
VL: DIQMTQSPASLSASVGETVTITCRATKNIYTYLAWYQQKQGKSPQFLVYNAKTLAEGVPSRFSGSGSGTQFSLKINSLQPEDFGNYYCQHHYGTPRTFGGGTKLEIKR
notes: Hybridoma-derived mouse IgG2a; also called ascites Pro-G purified antibody; purified antibody
binding result [3]: no binding (tested: 1:10,000 dilution of antibody)

B4: BCMA Protein, Human, Recombinant (ECD, rFc Tag) (Sino Biological 10620-H15H) (Fc fusion, UniProt Q02223 1-54, looked up)
chain: MLQMAGQCSQNEYFDSLLHACIPCQLRCSSNTPPLTCQRYCNASVTNSVKGTNA
notes: extracellular domain; Bought protein; also called recombinant BCMA; rabbit Fc tagged BCMA; not shown: rabbit Fc tag
binding result [4]: no binding (tested: 1 µg/mL rabbit Fc tagged BCMA)

fold increase in average cell fluorescence compared to isotype control [5]: 2 ×
fold increase of measured fluorescence per cell compared to isotype control [6]: 20 ×
B5: Clone 13.11×BCMAscFv: bsAbBCMA/ApoL1, anti-ApoL1, BCMA IgG1-scFv (Heavy Chain C-terminus) bispecific antibody (bispecific antibody)
heavy: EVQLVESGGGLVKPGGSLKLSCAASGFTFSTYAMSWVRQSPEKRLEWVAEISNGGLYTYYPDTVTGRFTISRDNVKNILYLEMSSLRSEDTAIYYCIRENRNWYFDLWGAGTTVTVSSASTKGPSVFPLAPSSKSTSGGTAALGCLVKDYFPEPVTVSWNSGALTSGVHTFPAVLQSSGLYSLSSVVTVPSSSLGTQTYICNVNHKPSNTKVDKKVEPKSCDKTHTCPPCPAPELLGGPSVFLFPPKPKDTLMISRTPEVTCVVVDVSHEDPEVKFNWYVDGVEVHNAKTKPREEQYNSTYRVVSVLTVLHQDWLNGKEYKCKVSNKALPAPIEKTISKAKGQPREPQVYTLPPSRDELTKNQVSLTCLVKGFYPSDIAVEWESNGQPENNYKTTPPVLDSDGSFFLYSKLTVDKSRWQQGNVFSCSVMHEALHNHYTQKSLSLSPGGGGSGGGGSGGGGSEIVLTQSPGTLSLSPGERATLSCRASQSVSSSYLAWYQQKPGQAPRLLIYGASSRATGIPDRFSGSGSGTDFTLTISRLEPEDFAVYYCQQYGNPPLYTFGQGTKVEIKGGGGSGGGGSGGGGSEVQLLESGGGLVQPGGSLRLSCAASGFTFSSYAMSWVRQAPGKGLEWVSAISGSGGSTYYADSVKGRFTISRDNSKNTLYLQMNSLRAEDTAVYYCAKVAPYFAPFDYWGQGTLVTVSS
light: DVLMTQTPLSLPVSLGDQASISCRSSQSIVNSNGNTYLEWYLQKPGQSPKLLIYKVSNRFSGVPDRFSGSGSGTDFTLKISRVEAEDLGVYYCFQGSHVPLTFGAGTKLEIKRTVAAPSVFIFPPSDEQLKSGTASVVCLLNNFYPREAKVQWKVDNALQSGNSQESVTEQDSKDSTYSLSSTLTLSKADYEKHKVYACEVTHQGLSSPVTKSFNRGEC
notes: It was used unlabeled, HRP-labeled or Alexa Fluor 488 labeled, depending on the assay; also called ApoL1-BCMA-bsAb; 488-bsAb
